Tests used:
[1] = target: HLA-A*03:01; experiment: IEDB peptide-MHC binding, purified MHC/competitive/radioactivity; filed as Kd, often an IC50 or EC50 that approximates it; ≥ and ≤ were set here for values at or beyond the usual limits of such assays
[2] = target: HLA-A*33:01; experiment: as above
[3] = target: HLA-A*11:01; experiment: as above
[4] = target: HLA-A*31:01; experiment: as above
[5] = target: HLA-A*68:01; experiment: as above
[6] = target: HLA-A*02:02; experiment: as above
[7] = target: HLA-A*02:03; experiment: as above
[8] = target: HLA-A*02:06; experiment: as above
[9] = target: HLA-A*03:01; experiment: IEDB peptide-MHC binding, purified MHC/direct/fluorescence; filed as Kd, often an IC50 or EC50 that approximates it; ≥ and ≤ were set here for values at or beyond the usual limits of such assays; details: source organism: Bacillus thuringiensis
[10] = target: HLA-A*02:01; experiment: as above; details: source organism: Mycobacterium tuberculosis
[11] = source organism: Vaccinia virus WR
[12] = source organism: SARS coronavirus Tor2
[13] = source organism: Mammarenavirus lassaense
[14] = source organism: Mammarenavirus brazilense
[15] = source organism: Mammarenavirus juninense

For SSDSENNPEY, the Kd [1, 11] was ≥ 70.1 µM, the Kd [2, 11] was ≥ 70 µM and the Kd [3, 11] was 4460 nM. For the same sequence, the Kd [4, 11] was ≥ 70000 nM and the Kd [5, 11] was ≥ 70200 nM.
With SSESLVYGIR the Kd [1, 11] was ≥ 34.8 µM, the Kd [2, 11] was 0.623 µM and the Kd [3, 11] was 476 nM. For the same sequence, the Kd [4, 11] was 780 nM and the Kd [5, 11] was 475 nM.
SVDVDIYDAV was tested, and the Kd [6, 11] was 0.427 nM, the Kd [7, 11] was 9.18 nM and the Kd [8, 11] was 3.3 nM.
SVQLSNNKYV showed a Kd [6, 11] of 1220 nM, a Kd [7, 11] of 820 nM and a Kd [8, 11] of 8830 nM.
In the case of SVTKSSSWK, the Kd [1, 11] is reported as 0.00762 µM, the Kd [2, 11] is reported as ≥ 77.7 µM and the Kd [3, 11] is reported as 2.51 nM. It also gave a Kd [4, 11] of 19600 nM and a Kd [5, 11] of 41.2 nM.
In the case of TAATKRYPGV, the Kd [6, 11] is reported as ≥ 25500 nM, the Kd [7, 11] is reported as 10500 nM and the Kd [8, 11] is reported as 5570 nM.
TFFIFNKLVK showed a Kd [1, 12] of 0.0818 µM, a Kd [2, 12] of 1.37 µM and a Kd [3, 12] of 50.5 nM. It also gave a Kd [4, 12] of 1550 nM and a Kd [5, 12] of 490 nM.
TIDNIVTSLA was tested, and the Kd [6, 11] was ≥ 70000 nM, the Kd [7, 11] was ≥ 70400 nM and the Kd [8, 11] was ≥ 69800 nM.
TILIRTGLLV was tested, and the Kd ([8]; source organism: Dengue virus 2 Jamaica/1409/1983) was 101 nM.
For TLDAANHSI, the Kd [6, 12] was 92.4 nM, the Kd [7, 12] was 283 nM and the Kd [8, 12] was 28.9 nM.
For TLDDLAIKQY, the Kd [1, 11] was 18.4 µM, the Kd [2, 11] was ≥ 70 µM and the Kd [3, 11] was 2920 nM. The Kd [4, 11] was ≥ 70000 nM and the Kd [5, 11] was ≥ 62400 nM.
With TMKPHTFNK the Kd [9] was 120 nM.
TSEKYSKGYK was tested, and the Kd [1, 11] was ≥ 25 µM, the Kd [2, 11] was ≥ 70 µM and the Kd [3, 11] was 1050 nM. For the same sequence, the Kd [4, 11] was ≥ 70000 nM and the Kd [5, 11] was 924 nM.
Sequence TSETMYLTMK has a Kd [1, 11] of 1.92 µM, a Kd [2, 11] of 11 µM and a Kd [3, 11] of 111 nM. The Kd [4, 11] was 2000 nM and the Kd [5, 11] was 471 nM.
TSFGPLVRK was tested, and the Kd [1, 12] was 0.00439 µM, the Kd [2, 12] was 5.25 µM and the Kd [3, 12] was 0.21 nM. The Kd [4, 12] was 452 nM and the Kd [5, 12] was 7.04 nM.
In the case of TTFITVLTSV, the Kd [6, 11] is reported as 1120 nM, the Kd [7, 11] is reported as 16.1 nM and the Kd [8, 11] is reported as 166 nM.
In the case of TTNNLLEQLI, the Kd [6, 11] is reported as 8880 nM, the Kd [7, 11] is reported as ≥ 21000 nM and the Kd [8, 11] is reported as 13100 nM.
VAVNKSNKPL was tested, and the Kd [6, 11] was 2750 nM, the Kd [7, 11] was 5130 nM and the Kd [8, 11] was 17600 nM.
For VCSFYADPK, the Kd [1, 13] was 3.84 µM, the Kd [2, 13] was ≥ 77.7 µM and the Kd [3, 13] was 3130 nM. For the same sequence, the Kd [4, 13] was ≥ 27200 nM and the Kd [5, 13] was 5680 nM.
Sequence VFHLYLQYIR has a Kd [1, 12] of 0.713 µM, a Kd [2, 12] of 0.174 µM and a Kd [3, 12] of 1150 nM. The Kd [4, 12] was 56.3 nM and the Kd [5, 12] was 868 nM.
For VLAGIFAGV, the Kd [10] was ≤ 1 nM.
VMCGGSLYV gave a Kd [6, 12] of 0.606 nM, a Kd [7, 12] of 7.5 nM and a Kd [8, 12] of 6.81 nM.
Sequence VQLSNNKYV has a Kd [6, 11] of 7340 nM, a Kd [7, 11] of 541 nM and a Kd [8, 11] of 214 nM.
In the case of VSLVKKNKK, the Kd [1, 11] is reported as ≥ 58.5 µM, the Kd [2, 11] is reported as ≥ 77.7 µM and the Kd [3, 11] is reported as 2280 nM. The Kd [4, 11] was 856 nM and the Kd [5, 11] was ≥ 27400 nM.
With VTFRERYSY the Kd [1, 11] was 0.0565 µM, the Kd [2, 11] was ≥ 5 µM and the Kd [3, 11] was 4.5 nM. It also gave a Kd [4, 11] of 81.9 nM and a Kd [5, 11] of 106 nM.
For VTGLFKDCSK, the Kd [1, 12] was 4.67 µM, the Kd [2, 12] was ≥ 57.1 µM and the Kd [3, 12] was 4740 nM. For the same sequence, the Kd [4, 12] was 5120 nM and the Kd [5, 12] was 10300 nM.
With VTLDFTKFH the Kd [1, 14] was 7.44 µM, the Kd [2, 14] was ≥ 57.2 µM and the Kd [3, 14] was 208 nM. For the same sequence, the Kd [4, 14] was 13100 nM and the Kd [5, 14] was ≥ 28400 nM.
VVECLTVPNI showed a Kd [6, 11] of 8420 nM, a Kd [7, 11] of 19600 nM and a Kd [8, 11] of 301 nM.
VVFLHVTYV showed a Kd [6, 12] of 7.75 nM, a Kd [7, 12] of 0.281 nM and a Kd [8, 12] of 3.86 nM.
For VVMDYLDNLK, the Kd [1, 12] was 6.52 µM, the Kd [2, 12] was ≥ 46.9 µM and the Kd [3, 12] was 1960 nM. For the same sequence, the Kd [4, 12] was ≥ 36600 nM and the Kd [5, 12] was 6730 nM.
With YIENTNQGNI the Kd [6, 11] was 1220 nM, the Kd [7, 11] was 582 nM and the Kd [8, 11] was 6200 nM.
YIWIKNLET was tested, and the Kd [6, 11] was 12600 nM, the Kd [7, 11] was 1180 nM and the Kd [8, 11] was 347 nM.
YLGHSAGFT was tested, and the Kd [6, 11] was 874 nM, the Kd [7, 11] was 225 nM and the Kd [8, 11] was 4550 nM.
In the case of YLLGDSDSVA, the Kd [6, 11] is reported as 1.97 nM, the Kd [7, 11] is reported as 22.8 nM and the Kd [8, 11] is reported as 135 nM.
In the case of YNFSLSAAV, the Kd [6, 15] is reported as ≥ 46200 nM, the Kd [7, 15] is reported as ≥ 78100 nM and the Kd [8, 15] is reported as ≥ 77000 nM.
Work on YNYSLSAAV yielded a Kd [6, 14] of 78.9 nM, a Kd [7, 14] of 67.2 nM and a Kd [8, 14] of 88.4 nM.
YTGGYDVSL was tested, and the Kd [6, 11] was 1990 nM, the Kd [7, 11] was 6050 nM and the Kd [8, 11] was ≥ 20300 nM.
In the case of YVASYLLAA, the Kd ([7]; source organism: Homo sapiens) is reported as 0.978 nM.

Reference: the Immune Epitope Database (IEDB)
